Measured values reported in US20220324993A1 (EXCELMAB, published 2022).

Tests used:
[1] = target: T1, CD3 antigen: 1:1 mixture of human CD3 e protein and human CD3 d protein (Sino Biological Inc.) (human, UniProt P07766 23-126; P04234 22-105); experiment: ELISA, CD3 e/d mixture coated, anti-human IgG-HRP detection
T1 construct: Bought recombinant proteins, mixed 1:1 and coated on the ELISA plate; also called antigen CD3
Method: 4) Addition of Samples: the bispecific antibody sample was diluted with PBS to 10 μg/ml and then subjected to a 4-fold gradient dilution at a total of eight concentrations. The diluted samples were added at 100 μL/well, and two replicate wells were used for each antibody concentration. The reaction wells were sealed with a plate sealing film and incubated at room temperature for 1.5 hours. The plate was washed 5 times with 0.05% PBST.
5) Addition of Secondary Antibody: HRP-labeled Goat Anti-Human IgG (H+L) (purchased from Proteintech company, product catalog No. SA00001-17) was diluted with PBS at a ratio of 1:2000 and added in a volume of 100 μL to each well. The reaction wells were sealed with a plate sealing film and incubated at room temperature for 1 hour. The plate was washed 5 times with 0.05% PBST.
7) Stopping: 50 μL of a stop solution (1 M HCl) was added to each well to stop the chromogenic reaction. After 3 min, the OD value of the reaction solution in each well was read at 450 nm on a microplate reader.

[2] = target: T2, CD20 on Raji cells (CD20+/CD3-) (human, UniProt P11836 1-297); experiment: cell-based or functional assay
T2 sequence (looked up): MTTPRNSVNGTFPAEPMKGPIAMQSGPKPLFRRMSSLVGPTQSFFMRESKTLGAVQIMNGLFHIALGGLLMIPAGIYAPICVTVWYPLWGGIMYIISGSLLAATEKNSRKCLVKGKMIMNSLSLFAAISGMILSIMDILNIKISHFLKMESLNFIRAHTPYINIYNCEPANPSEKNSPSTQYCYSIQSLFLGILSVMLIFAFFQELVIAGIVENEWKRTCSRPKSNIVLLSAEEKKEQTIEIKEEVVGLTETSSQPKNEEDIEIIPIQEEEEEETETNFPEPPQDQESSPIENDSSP

T1 sequence (P07766 23-126 limits assumed, chain 1 of 2): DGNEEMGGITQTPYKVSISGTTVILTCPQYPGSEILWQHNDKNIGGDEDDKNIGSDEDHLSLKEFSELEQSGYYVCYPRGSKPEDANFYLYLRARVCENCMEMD
T1 sequence (P04234 22-105 limits assumed, chain 2 of 2): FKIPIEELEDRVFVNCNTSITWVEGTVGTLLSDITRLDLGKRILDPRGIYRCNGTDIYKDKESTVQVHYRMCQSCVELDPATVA

B1: CD20×CD3 BsAb V1 (bispecific antibody, human IgG1, kappa, L234A L235A)
heavy 1: EVQLVESGGGLVQPGRSLRLSCAASGFTFNDYAMHWVRQAPGKGLEWVSTISWNSGSIGYADSVKGRFTISRDNAKKSLYLQMNSLRAEDTALYYCAKDIQYGNYYYGMDVWGQGTTVTVSSASTKGPSVFPCAPSSKSTSGGTAALGCLVKDYFPEPVTVSWNSGALTSGVHTFPAVLQSSGLYSLSSVVTVPSSSLGTQTYICNVNHKPSNTKVDKKVEPKSSDKTHTCPPCPAPEAAGGPSVFLFPPKPKDTLMISRTPEVTCVVVDVSHEDPEVKFNWYVDGVEVHNAKTKPREEQYNSTYRVVSVLTVLHQDWLNGKEYKCKVSNKALPAPIEKTISKAKGQPREPQVYTLPPSREEMTKNQVSLTCLVKGFYPSDIAVEWESNGQPENNYKTDDDVLDSDGSFFLYSKLTVDKSRWQQGNVFSCSVMHEALHNHYTQKSLSLSPGK
light 1: not shown
heavy 2: EVQLVESGGGLVQPGGSLKLSCAASGFTFNTYAMNWVRQAPGKGLEWVARIRSKYNNYATYYADSVKDRFTISRDDSKNTAYLQMNNLKTEDTAMYYCVRHGNFGNSYVSWFAYWGQGTLVTVSSASTKGPSVFPLAPSSKSTSGGTAALGCLVKDYFPEPVTVSWNSGALTSGVHTFPAVLQSSGLYSLSSVVTVPSSSLGTQTYICNVNHKPSNTKVDKKVEPKSCDKTHTCPPCPAPEAAGGPSVFLFPPKPKDTLMISRTPEVTCVVVDVSHEDPEVKFNWYVDGVEVHNAKTKPREEQYNSTYRVVSVLTVLHQDWLNGKEYKCKVSNKALPAPIEKTISKAKGQPREPQVYTLPPSRDELTKNQVSLTCLVKGFYPSDIAVEWESNGQPENNYKTTKKKLDSDGSFFLYSKLTVDKSRWQQGNVFSCSVMHEALHNHYTQKSLSLSPGK
light 2: DIQMTQEPSLTTSPGGTVTLTCRSSTGAVTTSNYANWVQEKPGQAPRGLIGGTNKRAPGTPARFSGSLIGGKAALTITGVQPEDEAIYFCALWYSNLWVFGGGTKLEIKRTVAAPSVFIFPPSDEQLKSGTASVVCLLNNFYPREAKVQWKVDNALQSGNSQESVTEQDSKDSTYSLSSTLTLSKADYEKHKVYACEVTHQGLSSPVTKSFNRGEC
notes: Four-chain IgG-like bispecific antibody with a heterodimeric Fc; The anti-CD20 arm is derived from Ofatumumab; the anti-CD3 arm is a humanized murine antibody without the N106T mutation; Expressed in HEK293 cells behind an IL-2 signal peptide supplied by the plasmid; also called CD20×CD3 bispecific antibody V1
In the case of B1, the EC50 [1] is reported as 0.818 µg/mL, the “ADCC activity to kill target tumor cells (Raji and Daudi cells), EC50” value [2] is reported as 0.2 ng/mL and the “killing of Raji cells by hPBMCs (LDH release), EC50” value [2] is reported as 0.21 ng/mL.

B2: CD20×CD3 BsAb V2 (bispecific antibody, human IgG1, kappa, L234A L235A)
heavy 1: EVQLVESGGGLVQPGRSLRLSCAASGFTFNDYAMHWVRQAPGKGLEWVSTISWNSGSIGYADSVKGRFTISRDNAKKSLYLQMNSLRAEDTALYYCAKDIQYGNYYYGMDVWGQGTTVTVSSASTKGPSVFPCAPSSKSTSGGTAALGCLVKDYFPEPVTVSWNSGALTSGVHTFPAVLQSSGLYSLSSVVTVPSSSLGTQTYICNVNHKPSNTKVDKKVEPKSSDKTHTCPPCPAPEAAGGPSVFLFPPKPKDTLMISRTPEVTCVVVDVSHEDPEVKFNWYVDGVEVHNAKTKPREEQYNSTYRVVSVLTVLHQDWLNGKEYKCKVSNKALPAPIEKTISKAKGQPREPQVYTLPPSREEMTKNQVSLTCLVKGFYPSDIAVEWESNGQPENNYKTDDDVLDSDGSFFLYSKLTVDKSRWQQGNVFSCSVMHEALHNHYTQKSLSLSPGK
light 1: not shown
heavy 2: EVQLVESGGGLVQPGGSLKLSCAASGFTFNTYAMNWVRQAPGKGLEWVARIRSKYNNYATYYADSVKDRFTISRDDSKNTAYLQMNNLKTEDTAMYYCVRHGNFGTSYVSWFAYWGQGTLVTVSSASTKGPSVFPLAPSSKSTSGGTAALGCLVKDYFPEPVTVSWNSGALTSGVHTFPAVLQSSGLYSLSSVVTVPSSSLGTQTYICNVNHKPSNTKVDKKVEPKSCDKTHTCPPCPAPEAAGGPSVFLFPPKPKDTLMISRTPEVTCVVVDVSHEDPEVKFNWYVDGVEVHNAKTKPREEQYNSTYRVVSVLTVLHQDWLNGKEYKCKVSNKALPAPIEKTISKAKGQPREPQVYTLPPSRDELTKNQVSLTCLVKGFYPSDIAVEWESNGQPENNYKTTKKKLDSDGSFFLYSKLTVDKSRWQQGNVFSCSVMHEALHNHYTQKSLSLSPGK
light 2: DIQMTQEPSLTTSPGGTVTLTCRSSTGAVTTSNYANWVQEKPGQAPRGLIGGTNKRAPGTPARFSGSLIGGKAALTITGVQPEDEAIYFCALWYSNLWVFGGGTKLEIKRTVAAPSVFIFPPSDEQLKSGTASVVCLLNNFYPREAKVQWKVDNALQSGNSQESVTEQDSKDSTYSLSSTLTLSKADYEKHKVYACEVTHQGLSSPVTKSFNRGEC
notes: also called CD20×CD3 bispecific antibody V2
For B2, the EC50 [1] was 2.1 µg/mL, the “ADCC activity to kill target tumor cells (Raji and Daudi cells), EC50” value [2] was 0.2 ng/mL and the “killing of Raji cells by hPBMCs (LDH release), EC50” value [2] was 0.24 ng/mL.
